What was measured:
[1] = molecular target: TcdB2 (R20292 strain), recombinant full-length, from Bacillus megaterium (Clostridioides difficile (R20292 strain as printed))
[2] = molecular target: Repeat1-Fc (CSPG4 Repeat1, residues 410–551, fused to the N-terminus of human IgG1 Fc) (human) (UniProt Q6UVK1); test: BLI; Repeat1-Fc (50 nM) immobilised on Anti-hIgG-Fc biosensors, TcdB1 or TcdB2 in solution; 20 mM HEPES, 400 mM NaCl, pH 7.5, 10 mM CaCl2, 0.1% Tween-20, 0.5% BSA; 1:1 binding model
Repeat1-Fc (CSPG4 Repeat1, residues 410–551, fused to the N-terminus of human IgG1 Fc) (human), sequence (Q6UVK1 410-551): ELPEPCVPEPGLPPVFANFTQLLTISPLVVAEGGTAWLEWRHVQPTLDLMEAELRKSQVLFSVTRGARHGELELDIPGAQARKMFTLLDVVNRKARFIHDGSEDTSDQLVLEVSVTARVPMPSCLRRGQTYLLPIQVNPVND

Repeat1-Fc (CSPG4 Repeat1, residues 410–551, fused to the N-terminus of human IgG1 Fc), sequence (Q6UVK1 410-551): as above

Substance	neutralisation in the cell-rounding assay on HeLa cells, 24 h, Repeat1-Fc at 2 µM; cells kept from rounding [1]	Kd [2]	koff [2]	kon [2]
Repeat1-Fc (CSPG4 Repeat1, residues 410–551, fused to the N-terminus of human IgG1 Fc) (from UniProt Q6UVK1 410-551) (Fc fusion)	40%			
TcdB2 (R20292 strain), recombinant full-length, from Bacillus megaterium (natural protein)		5.4 nM	4.63e-05 s⁻¹	8340 M⁻¹ s⁻¹

Source: paper PMC8213806
